Reference: paper PMC11051671 (Science Advances, 2024)

Molecular target: the molecule itself
Experiment: cryo-EM structure

B1: hZnT1-D47N/D255N double mutant (natural protein, human, UniProt Q9Y6M5 1-507, looked up)
chain: MGCWGRNRGRLLCMLALTFMFMVLEVVVSRVTSSLAMLSDSFHMLSNVLALVVALVAERFARRTHATQKNTFGWIRAEVMGALVNAIFLTGLCFAILLEAIERFIEPHEMQQPLVVLGVGVAGLLVNVLGLCLFHHHSGFSQDSGHGHSHGGHGHGHGLPKGPRVKSTRPGSSDINVAPGEQGPDQEETNTLVANTSNSNGLKLDPADPENPRSGDTVEVQVNGNLVREPDHMELEEDRAGQLNMRGVFLHVLGNALGSVIVVVNALVFYFSWKGCSEGDFCVNPCFPDPCKAFVEIINSTHASVYEAGPCWVLYLDPTLCVVMVCILLYTTYPLLKESALILLQTVPKQIDIRNLIKELRNVEGVEEVHELHVWQLAGSRIIATAHIKCEDPTSYMEVAKTIKDVFHNHGIHATTIQPEFASVGSKSSVVPCELACRTQCALKQCCGTLPQAPSGKDAEKTPAVSISCLELSNNLEKKPRRTKAENIPAVVIEIKNMPNKQPESSL
  stoichiometry N: 2
